Test results published in US20260263563A1, “Method of Treatment of a Thoracolumbar Deformity in a Human Subject with Achondroplasia” (Ascendis Pharma Growth Disorders A/S, priority 2023, published 2026).
Where two headings read alike, the source gives them in different places.

Tested on: prepubertal children with achondroplasia
Procedure: The study enrolled a minimum of 60 male and female prepubertal children with ACH aged 2 to 10 years old. The clinical trial is listed on www.clinicaltrials.gov under the ClinicalTrials.gov Identifier: NCT04085523. The objectives of the study were as follow:
This trial is a multicenter trial consisting of two treatment periods.
Participants should rest for at least 5 minutes before vital sign measurement and vital signs should be taken prior to any blood draws. The following vital signs should be measured: • Heart Rate (measured in beats per minute) • Blood Pressure (seated BP will be taken measured in mm Hg) • Temperature [measured in degrees Celsius (° C.) or Fahrenheit (° F.)]
All vital signs above must be measured at all visits. […] Orthostatic hypotension is defined as decrease in SBP of ≥20 mmHg (Stewart et al., Pediatrics, 141, 1-13, 2018). Accompanying tachycardia is defined as change of heart rate increment of ≥40 bpm and absolute orthostatic HR≥130 bpm (for ages 13 years and younger) (Singer et al., Journal of Pediatrics, 160, 222-226, 2012). Additionally, at Visit 1 and Visit 7 (in the Open-Label Extension Period), all vital signs must be monitored at 1 hour and 2 hours post injection of the study drug.

[1] = 57 patients followed for up to 65 weeks
[2] = more than 2,000 injections administered

Navepegritide [Compound (1)]
Serious TEAE (6 μg/kg/week (n = 10)): 1 (10.0)
Subject with Treatment-Emergent Adverse Events (TEAE) (6 μg/kg/week (n = 10)): 9 (90.0)
Subjects with at Least One Treatment-Related TEAE (6 μg/kg/week (n = 10)): 3 (30.0)
TEAE Grade 1 (6 μg/kg/week (n = 10)): 9 (90.0)
TEAE Grade 2 (6 μg/kg/week (n = 10)): 3 (30.0)
Treatment-Related TEAE (6 μg/kg/week (n = 10)): 3 (30.0)
Treatment-related: Abdominal pain upper (6 μg/kg/week (n = 10)): 0
Treatment-related: Dizziness (6 μg/kg/week (n = 10)): 0
Treatment-related: Injection site reaction (6 μg/kg/week (n = 10)): 2 (20.0)
Treatment-related: Overdose (6 μg/kg/week (n = 10)): 0
Treatment-related: Sleep terror (6 μg/kg/week (n = 10)): 0
Treatment-related: Urticaria (6 μg/kg/week (n = 10)): 1 (10.0)
Achondroplasia-Related TEAE (6 μg/kg/week (n = 10), placebo 9 (60.0)): 3 (30.0)
Achondroplasia-Related TEAE (20 μg/kg/week (n = 11)): 4 (36.4)
Serious TEAE (20 μg/kg/week (n = 11)): 0
Subject with Treatment-Emergent Adverse Events (TEAE) (20 μg/kg/week (n = 11)): 11 (100.0)
Subjects with at Least One Treatment-Related TEAE (20 μg/kg/week (n = 11)): 2 (18.2)
TEAE Grade 1 (20 μg/kg/week (n = 11)): 11 (100.0)
TEAE Grade 2 (20 μg/kg/week (n = 11)): 3 (27.3)
Treatment-Related TEAE (20 μg/kg/week (n = 11)): 2 (18.2)
Treatment-related: Abdominal pain upper (20 μg/kg/week (n = 11)): 1 (9.1)
Treatment-related: Dizziness (20 μg/kg/week (n = 11)): 0
Treatment-related: Injection site reaction (20 μg/kg/week (n = 11)): 1 (9.1)
Treatment-related: Overdose (20 μg/kg/week (n = 11)): 0
Treatment-related: Sleep terror (20 μg/kg/week (n = 11)): 0
Treatment-related: Urticaria (20 μg/kg/week (n = 11)): 0
Achondroplasia-Related TEAE (50 μg/kg/week (n = 10)): 5 (50.0)
Serious TEAE (50 μg/kg/week (n = 10)): 1 (10.0)
Subject with Treatment-Emergent Adverse Events (TEAE) (50 μg/kg/week (n = 10)): 10 (100.0)
Subjects with at Least One Treatment-Related TEAE (50 μg/kg/week (n = 10)): 3 (30.0)
TEAE Grade 1 (50 μg/kg/week (n = 10)): 10 (100.0)
TEAE Grade 2 (50 μg/kg/week (n = 10)): 3 (30.0)
Treatment-Related TEAE (50 μg/kg/week (n = 10)): 3 (30.0)
Treatment-related: Abdominal pain upper (50 μg/kg/week (n = 10)): 0
Treatment-related: Dizziness (50 μg/kg/week (n = 10)): 0
Treatment-related: Injection site reaction (50 μg/kg/week (n = 10)): 3 (30.0)
Treatment-related: Overdose (50 μg/kg/week (n = 10)): 0
Treatment-related: Sleep terror (50 μg/kg/week (n = 10)): 0
Treatment-related: Urticaria (50 μg/kg/week (n = 10)): 0
Achondroplasia-Related TEAE (100 μg/kg/week (n = 11)): 1 (9.1)
Serious TEAE (100 μg/kg/week (n = 11)): 0
Subject with Treatment-Emergent Adverse Events (TEAE) (100 μg/kg/week (n = 11)): 10 (90.9)
Subjects with at Least One Treatment-Related TEAE (100 μg/kg/week (n = 11)): 2 (18.2)
TEAE Grade 1 (100 μg/kg/week (n = 11)): 9 (81.8)
TEAE Grade 2 (100 μg/kg/week (n = 11)): 1 (9.1)
Treatment-Related TEAE (100 μg/kg/week (n = 11)): 2 (18.2)
Treatment-related: Abdominal pain upper (100 μg/kg/week (n = 11)): 0
Treatment-related: Dizziness (100 μg/kg/week (n = 11)): 0
Treatment-related: Injection site reaction (100 μg/kg/week (n = 11)): 2 (18.2)
Treatment-related: Overdose (100 μg/kg/week (n = 11)): 0
Treatment-related: Sleep terror (100 μg/kg/week (n = 11)): 0
Treatment-related: Urticaria (100 μg/kg/week (n = 11)): 0
reporting of achondroplasia related treatment emergent adverse events (100 μg/kg/week dose group, 60% in the placebo group): 9.1%
AEs on orthostatism [1]: no AEs reported on orthostatism
serious adverse events related to the trial drug [1]: no serious adverse events related to the trial drug
withdrawals or discontinuations from the trial [1]: no withdrawals or discontinuations
total AEs related to trial drug or procedures (57 patients, more than 1900 injections): 13
severity of ISRs (all ISRs): mild
injection site reactions (among more than 1900 injections): 8
number of injection site reactions (ISRs) [2]: 11
number of patients with ISRs [2]: 8
tolerability of injections (weekly s.c. injections): well tolerated with a low frequency of injection site reactions
